# Measurements taken from the supplement of paper PMC10567573.
# ± gives the standard deviation.
# Experiment: protein stability index of a GFP-peptide fusion (GPS, HEK-293T) (PSI 1-6); higher = more stable
# Conditions: c terminus: a fixed tail appended
# 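Note: 24-mer peptide tiles fused after GFP, lentivirally expressed, FACS-sorted into six equal bins by GFP/DsRed ratio, decoded by Illumina sequencing, PSI is the read-weighted mean bin number.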
Sequence,protein stability index (treatment: DMSO),"protein stability index (treatment: MLN4924 1 uM, 8 h)"
AAALDYEADGSTNNGIFQINSRRW [SPACA3],3.64 ± 0.46,3.76 ± 0.35
AALAAMNGRKIMGKEVKVNWATTP [TIA1],2.25 ± 0.32,2.3 ± 0.28
AALSATGPRFLAYFGSFATVGLLW [TMEM175],3.01 ± 0.25,3.18 ± 0.72
AANSYDLAIKAITSSAKVDMTFEE [FKBP8],4.28 ± 0.24,4.36 ± 0.22
AAPPPPATPIVPVVPPTPPVVKKK [BRD3],5.51 ± 0.21,5.25 ± 0.48
ADYFATFVQREEQLQFLIRYHRFI [CDS1],2.2 ± 0.54,2.37 ± 0.27
AEALFDFTGNSKLELNFKAGDVIF [NCF4],2.05 ± 0.29,2.23 ± 0.27
AEGLANGPDVLETDGLQEVPLCSC [EHMT1],4.75 ± 0.2,5 ± 0.31
AENYLSGGGPGDGGGADTGTGGEE [FBXO33],5.42 ± 0.31,5.55 ± 0.23
AERYKLERLAEAEKSQLIMQAEAE [FLOT1],5.29 ± 0.25,5 ± 0.28
AFCALVHSFFPDAFDYNSLSPTQR [SMTNL2],2.61 ± 0.56,2.21 ± 0.31
AFLELPHGSGGSGYPAAPPAVPFA [TBX6],2.55 ± 0.15,2.69 ± 0.39
AFMNQEITKAFHVRKANRIKECLS [RHOBTB1],2.41 ± 0.18,2.53 ± 0.33
AFREFDRDRDGRITVAELREAVPA [CABP4],4.65 ± 0.37,4.58 ± 0.17
AGALLRLPSERLDFSMAEALNQEF [PRPH],3.32 ± 0.3,3.52 ± 0.35
AGDGDTSNFETYPENDWDTAAPVP [PRKX],5.33 ± 0.33,5.14 ± 0.32
AGGATAWGDLLGEDSLAALSSVPS [SNAP91],3.99 ± 0.25,3.96 ± 0.11
AGGGGFGGGSLSGGGGSRSISASS [KRT15],3.89 ± 0.3,4 ± 0.21
AGGHLAVVELLLAHGADPTHRLKD [ANKRD17],1.95 ± 0.18,2.11 ± 0.32
AGIGRTGTFCSLDICLAQLEELGT [PTPN9],2.23 ± 0.24,2.62 ± 0.64
AGKSGTSTPTTPGSTAITPGTPPS [MAP2],5.11 ± 0.33,5.11 ± 0.44
AGLLPPVPAQKFSALTFLRVDQDK [SMOC2],3.21 ± 0.21,3.3 ± 0.29

Sequence,protein stability index (treatment: DMSO),"protein stability index (treatment: MLN4924 1 uM, 8 h)"
AGSIGGLFFAVGIAQYALLGYFIR [SLC22A15],3.35 ± 0.72,3.4 ± 0.23
AIGVGQVDFNTLKSIGSEPHEDHV [MATN2],4.67 ± 0.24,4.88 ± 0.054
AILGEQRPRQRQRVYPKCTWLTTP [TCF25],2.46 ± 0.38,2.05 ± 0.27
AKPEALSSPKFREEAAFPGRRVNA [ELOA2],4.48 ± 0.25,4.59 ± 0.17
ALKRQLPFRGDEGIFEESFIEERR [SNX12],3.8 ± 0.16,4.15 ± 0.31
ALLKFREDEGFVREEEDRALPENE [KCNA4],5.31 ± 0.32,5.43 ± 0.19
ALQYAGDGSVLLIPRTMADQQARR [NFE2L1],3.11 ± 0.14,3.19 ± 0.63
ANHTHTFYGHSHHSHHGHPSHQSH [C10orf62],3.51 ± 0.12,3.46 ± 0.23
APKDSAPQDLAPQVSAHHRSQESL [TBC1D10A],5.36 ± 0.2,5.38 ± 0.14
APQNLTRWTFEKACHPFLLGPPLV [TOR1AIP2],2.4 ± 0.21,2.08 ± 0.18
AQNREPESVEQLESRIVEQENAIQ [SNX8],5.54 ± 0.063,5.52 ± 0.19
AQTLAMMLQEQLDAINEEIRMIQE [PPFIA4],2.95 ± 0.29,2.7 ± 0.46
AQTLLRLSGVQRVESVFFGGGTPS [RSAD1],2.43 ± 0.27,2.47 ± 0.3
ARAFAEKNNLSFIETSALDSTNVE [RAB11B],4.51 ± 0.15,4.54 ± 0.13
ARLFDEPQLASLCLDTIDKSTMDA [BTBD1],4.35 ± 0.43,4.53 ± 0.17
ARLRHQELFRLRGIKAQVALRLAE [NOP53],2.22 ± 0.15,2.22 ± 0.31
ARQEGLTFFGTELAPVRQQELASL [PBXIP1],3.56 ± 0.22,3.69 ± 0.48
ARSGHRCVADNTNLYVFGGYNPDY [KLHDC10],2.23 ± 0.22,2.3 ± 0.36
ASLPSQKYPGPQAEGDSEGLSQGL [CHGA],5.2 ± 0.28,5.25 ± 0.17
ASSRSQQSSKRSSRSVEDDKEGHL [CLK3],5.44 ± 0.079,5.52 ± 0.29
ATDPFVAFHINKGLVKKYMNSLLI [FADS1],2.46 ± 0.59,2.64 ± 0.43
ATPGEYSVNICGMNEHPVCSRTWT [SPAG8],2.44 ± 0.28,2.57 ± 0.39

Sequence,protein stability index (treatment: DMSO),"protein stability index (treatment: MLN4924 1 uM, 8 h)"
AVDFTQEEWGQLDPTQRILYRDVM [ZNF8],3.75 ± 0.18,3.88 ± 0.35
AWISKIKGSPDVSASSDEPYARIQ [SMIM2],3.11 ± 0.38,3.44 ± 0.17
AWLPQAKVPFSQEIKDLILPKISD [PI4K2A],2.72 ± 0.059,2.78 ± 0.18
AYQQGVGYQMLGNVVTIGLAFFPF [PHTF1],2.93 ± 0.39,3.13 ± 0.067
CAFSRTLPWSSVLRVWDMFFCEGV [TBC1D10A],2.85 ± 0.42,2.94 ± 0.49
CAHCRAHLANHDDLISKSFQGSQG [YPEL3],2.45 ± 0.34,2.74 ± 0.24
CCLVKMESLEPDAQVLMLGQILEL [FANCE],3.04 ± 0.15,2.83 ± 0.48
CCRACSVSFSTGAGGWSNHHFCVI [BET1L],2.42 ± 0.26,2.35 ± 0.33
CEEALCSNLSVENVADTLVLADLH [SPOPL],4.52 ± 0.086,4.48 ± 0.22
CEETGELFEEPAPQALATRALPCP [FCHSD1],4.95 ± 0.2,4.9 ± 0.24
CEGPPRGKGFRDRNVTGTPLTGDK [ADAMTSL2],5.07 ± 0.36,5.17 ± 0.16
CEMDWSDKMEAYNIDETCGRHHSQ [TEKT4],4.53 ± 0.15,4.56 ± 0.13
CHSFAAAADGPTVCCNPYHFSRLC [SMAD6],2.4 ± 0.35,2.22 ± 0.2
CKARMERDGYGMTPLLAASVTGHT [FEM1A],2.9 ± 0.32,2.87 ± 0.2
CLAQGWKQYQQRAFGWFRCSSCQR [RTP4],2.15 ± 0.15,2.27 ± 0.28
CLECGKSFCHGSSLKRHLKTHTGE [ZNF449],4.78 ± 0.16,5.273 ± 0.015
CLSFQPECSMKLTPLVLEVFGNEI [VDR],2.27 ± 0.38,2.52 ± 0.19
CQEWYARRHCPLPQATFWGLVTPR [SOAT2],2.32 ± 0.23,2.25 ± 0.54
CQEYLARNARIVHLVEETRIHVLP [CPXM2],2.2 ± 0.28,2.49 ± 0.35
CRCKNSNTVYCKLESCPSRGQGKP [SPRY1],3.66 ± 0.59,3.77 ± 0.29
CRIQDLCAMEDHNCEQLCVNVPGS [MATN2],3.01 ± 0.44,2.77 ± 0.32
